Results taken from patent publication KR20230078152A.

Biological target: human PSMA (prostate-specific membrane antigen) expressed on LNCaP cells (human) (UniProt Q04609)
Test: flow cytometry on LNCaP cells, isotype control 10μg/mL, 4℃

Sequence of human PSMA (prostate-specific membrane antigen) expressed on LNCaP cells (human) (Q04609 whole entry): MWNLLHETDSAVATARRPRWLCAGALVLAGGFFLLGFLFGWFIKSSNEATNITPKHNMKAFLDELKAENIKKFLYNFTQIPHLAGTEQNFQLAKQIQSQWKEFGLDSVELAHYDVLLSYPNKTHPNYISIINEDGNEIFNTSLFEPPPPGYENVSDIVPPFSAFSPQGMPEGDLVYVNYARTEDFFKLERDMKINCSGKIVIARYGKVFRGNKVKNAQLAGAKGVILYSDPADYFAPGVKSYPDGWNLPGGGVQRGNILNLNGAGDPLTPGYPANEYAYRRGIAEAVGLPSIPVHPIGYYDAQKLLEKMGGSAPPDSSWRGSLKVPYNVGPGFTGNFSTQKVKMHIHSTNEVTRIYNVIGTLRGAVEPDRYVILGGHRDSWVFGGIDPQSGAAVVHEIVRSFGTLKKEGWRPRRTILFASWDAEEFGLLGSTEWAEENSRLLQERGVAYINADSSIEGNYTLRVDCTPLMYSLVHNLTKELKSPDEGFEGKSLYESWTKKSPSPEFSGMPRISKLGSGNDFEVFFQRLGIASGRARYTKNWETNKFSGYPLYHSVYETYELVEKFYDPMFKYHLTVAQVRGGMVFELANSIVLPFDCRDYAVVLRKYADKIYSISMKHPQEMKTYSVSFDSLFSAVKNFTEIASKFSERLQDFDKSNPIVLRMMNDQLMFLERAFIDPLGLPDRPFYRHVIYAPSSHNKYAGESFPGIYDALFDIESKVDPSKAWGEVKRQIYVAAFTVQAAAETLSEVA

Mean FL: 3440 Mean FL
Substance: Mouse IgG Isotype Control (ThermoFisher, cat.No.02-6502) (antibody)
